Reference: patent US20230400461A1 (TEKNOLOGIAN TUTKIMUSKESKUS VTT, published 2023)

Columns and labels:
[1] = biological target: T1, Staphylococcus aureus Enterotoxin B (Staphylococcus aureus, UniProt P01552 28-266); experiment: ELISA (screening; results not shown)
T1 sequence: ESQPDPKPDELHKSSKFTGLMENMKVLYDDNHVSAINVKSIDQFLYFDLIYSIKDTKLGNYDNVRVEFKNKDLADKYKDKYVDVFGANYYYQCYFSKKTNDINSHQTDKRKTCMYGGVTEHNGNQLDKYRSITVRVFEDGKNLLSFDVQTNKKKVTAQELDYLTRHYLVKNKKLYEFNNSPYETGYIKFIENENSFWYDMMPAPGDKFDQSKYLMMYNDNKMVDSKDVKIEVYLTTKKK

[2] = biological target: T2, Staphylococcus aureus Enterotoxin A (Staphylococcus aureus, UniProt P0A0L2 25-257)
T2 sequence: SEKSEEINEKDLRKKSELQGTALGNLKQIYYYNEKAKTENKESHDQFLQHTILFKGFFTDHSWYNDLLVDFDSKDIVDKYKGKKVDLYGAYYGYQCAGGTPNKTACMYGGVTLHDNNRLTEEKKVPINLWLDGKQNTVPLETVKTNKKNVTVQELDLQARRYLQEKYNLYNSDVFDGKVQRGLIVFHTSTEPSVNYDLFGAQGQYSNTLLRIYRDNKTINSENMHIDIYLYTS

B1: anti-SEA (55) Fab (Fab, V domains shown)
VH: QVQLQQSGAELMKPGASVKISCKATGYTISSHWIEWVKQRPGHGLEWIGETLPGSGSTKYNEKFKGKATITADTSSNTAYMQLSSLTSEDSAVYYCARGDGNYGWFAYWGQGTLVTVSA
VL: DIVLTQSPALMAASPGEKVTITCSVSSSISSSNLHWYQQKSETSPKPWIYGTSNLASGVPVRFSGSGSGTSYSLTISSMEAEDAATYYCQQWSSYPLTFGAGTKLELK
Question: What does the source list for B1?
Answer: binding result [1]: no binding; Kd [2]: 3.6 nM; koff [2]: 0.00035 s⁻¹; kon [2]: 97000 M⁻¹ s⁻¹

B2: anti-SEA (90) Fab (Fab, V domains shown)
VH: EVQLQQSGPELVKPGASVKMSCKASGYTFTSYVMQWVKQKPGQGLEWIGYINPYNDGTKYNEKFKGKATLTSDKSSSTAYMELSSLTSEDSAVYYCARGDGVGGMDYWGQGTSVTVSS
VL: DIVMTQSPATLSVTPGDRVSLSCRASQSISDYLHWYQQKSHESPRLLIKYASQSISGIPSRFSGSGSGSDFTLSINSVEPEDVGVYYCQNGHSFPPTFGGGTKLEIK
Question: Does B2 bind [1]?
Answer: Result: no binding

Question: And the Kd [2]?
Answer: Its Kd is 3 nM.

Question: What about the koff [2] of the same binder?
Answer: Its koff is 0.0013 s⁻¹.

Question: And the kon [2]?
Answer: The kon was 420000 M⁻¹ s⁻¹.
